± gives the uncertainty stated by the source.

This data set in a line: abundance fitness (aPCA) (normalised: wild type 0, dead -1); higher = more abundant; growth selection in yeast, the domain comes from the species named. The note with it: Homo sapiens.
Substance “NEDD4-like E3 ubiquitin-protein ligase WWP2 P477W, O00308” had an abundance fitness of -0.138 ± 0.048. To “NEDD4-like E3 ubiquitin-protein ligase WWP2 P477Y, O00308” belongs -0.145 ± 0.063. Next, “NEDD4-like E3 ubiquitin-protein ligase WWP2 P488A, O00308”: -0.31 ± 0.037. Next, “NEDD4-like E3 ubiquitin-protein ligase WWP2 P488C, O00308”: -0.049 ± 0.058. In turn, “NEDD4-like E3 ubiquitin-protein ligase WWP2 P488D, O00308” gave an abundance fitness of 0.033 ± 0.053. To “NEDD4-like E3 ubiquitin-protein ligase WWP2 P488E, O00308” belongs 0.018 ± 0.055; to “NEDD4-like E3 ubiquitin-protein ligase WWP2 P488F, O00308”, -0.127 ± 0.064. Next, “NEDD4-like E3 ubiquitin-protein ligase WWP2 P488G, O00308”: -0.032 ± 0.04; “NEDD4-like E3 ubiquitin-protein ligase WWP2 P488H, O00308”: 0.024 ± 0.062; “NEDD4-like E3 ubiquitin-protein ligase WWP2 P488I, O00308”: -0.163 ± 0.069. To “NEDD4-like E3 ubiquitin-protein ligase WWP2 P488K, O00308” belongs -0.04 ± 0.053. In the case of “NEDD4-like E3 ubiquitin-protein ligase WWP2 P488L, O00308”, the abundance fitness was -0.063 ± 0.038. To “NEDD4-like E3 ubiquitin-protein ligase WWP2 P488M, O00308” belongs -0.018 ± 0.057.

Take “NEDD4-like E3 ubiquitin-protein ligase WWP2 P488N, O00308”: the abundance fitness came to 0.021 ± 0.051. Next, “NEDD4-like E3 ubiquitin-protein ligase WWP2 P488Q, O00308”: -0.028 ± 0.033; “NEDD4-like E3 ubiquitin-protein ligase WWP2 P488T, O00308”: -0.044 ± 0.048. To “NEDD4-like E3 ubiquitin-protein ligase WWP2 P488V, O00308” belongs -0.037 ± 0.042. Next, “NEDD4-like E3 ubiquitin-protein ligase WWP2 P488W, O00308”: -0.144 ± 0.048; “NEDD4-like E3 ubiquitin-protein ligase WWP2 P488Y, O00308”: -0.066 ± 0.043.

As to “NEDD4-like E3 ubiquitin-protein ligase WWP2 Q442A, O00308”, the abundance fitness is -0.07 ± 0.035. Next, “NEDD4-like E3 ubiquitin-protein ligase WWP2 Q442C, O00308”: 0.121 ± 0.079; “NEDD4-like E3 ubiquitin-protein ligase WWP2 Q442D, O00308”: 0.079 ± 0.066. Next, “NEDD4-like E3 ubiquitin-protein ligase WWP2 Q442E, O00308”: 0.069 ± 0.04. “NEDD4-like E3 ubiquitin-protein ligase WWP2 Q442F, O00308”: the abundance fitness worked out at 0.128 ± 0.059. To “NEDD4-like E3 ubiquitin-protein ligase WWP2 Q442G, O00308” belongs -0.071 ± 0.052.

“NEDD4-like E3 ubiquitin-protein ligase WWP2 Q442H, O00308” showed an abundance fitness of -0.108 ± 0.086. To “NEDD4-like E3 ubiquitin-protein ligase WWP2 Q442K, O00308” belongs 0.195 ± 0.069; to “NEDD4-like E3 ubiquitin-protein ligase WWP2 Q442L, O00308”, -0.058 ± 0.045. With “NEDD4-like E3 ubiquitin-protein ligase WWP2 Q442M, O00308”, the abundance fitness was 0.038 ± 0.078. Next, “NEDD4-like E3 ubiquitin-protein ligase WWP2 Q442N, O00308”: 0.097 ± 0.086.

Substance “NEDD4-like E3 ubiquitin-protein ligase WWP2 Q442P, O00308” came in with an abundance fitness of -0.067 ± 0.039. To “NEDD4-like E3 ubiquitin-protein ligase WWP2 Q442S, O00308” belongs 0.008 ± 0.042. Next, “NEDD4-like E3 ubiquitin-protein ligase WWP2 Q442T, O00308”: 0.048 ± 0.03.

“NEDD4-like E3 ubiquitin-protein ligase WWP2 Q442V, O00308” returned an abundance fitness of 0.093 ± 0.042. To “NEDD4-like E3 ubiquitin-protein ligase WWP2 Q442W, O00308” belongs -0.122 ± 0.072; to “NEDD4-like E3 ubiquitin-protein ligase WWP2 Q442Y, O00308”, 0.033 ± 0.048; to “NEDD4-like E3 ubiquitin-protein ligase WWP2 Q485A, O00308”, -0.036 ± 0.039. To “NEDD4-like E3 ubiquitin-protein ligase WWP2 Q485C, O00308” belongs -0.071 ± 0.053; to “NEDD4-like E3 ubiquitin-protein ligase WWP2 Q485D, O00308”, -0.003 ± 0.053; to “NEDD4-like E3 ubiquitin-protein ligase WWP2 Q485E, O00308”, -0.034 ± 0.046.

“NEDD4-like E3 ubiquitin-protein ligase WWP2 Q485F, O00308” displayed an abundance fitness of -0.149 ± 0.075. With “NEDD4-like E3 ubiquitin-protein ligase WWP2 Q485G, O00308”, the abundance fitness was -0.004 ± 0.035.

Take “NEDD4-like E3 ubiquitin-protein ligase WWP2 Q485L, O00308”: the abundance fitness was -0.053 ± 0.035. To “NEDD4-like E3 ubiquitin-protein ligase WWP2 Q485M, O00308” belongs -0.038 ± 0.048; to “NEDD4-like E3 ubiquitin-protein ligase WWP2 Q485N, O00308”, 0.095 ± 0.067. For “NEDD4-like E3 ubiquitin-protein ligase WWP2 Q485P, O00308”, the abundance fitness was -0.184 ± 0.068. Next, “NEDD4-like E3 ubiquitin-protein ligase WWP2 Q485R, O00308”: -0.028 ± 0.038. In the case of “NEDD4-like E3 ubiquitin-protein ligase WWP2 Q485S, O00308”, the abundance fitness was -0.053 ± 0.046. To “NEDD4-like E3 ubiquitin-protein ligase WWP2 Q485W, O00308” belongs -0.149 ± 0.062; to “NEDD4-like E3 ubiquitin-protein ligase WWP2 Q485Y, O00308”, -0.126 ± 0.072.

Substance “NEDD4-like E3 ubiquitin-protein ligase WWP2 R460A, O00308” showed an abundance fitness of -0.072 ± 0.044. To “NEDD4-like E3 ubiquitin-protein ligase WWP2 R460C, O00308” belongs -0.277 ± 0.074; to “NEDD4-like E3 ubiquitin-protein ligase WWP2 R460D, O00308”, -0.169 ± 0.083. “NEDD4-like E3 ubiquitin-protein ligase WWP2 R460E, O00308” displayed an abundance fitness of -0.183 ± 0.063.

Substance “NEDD4-like E3 ubiquitin-protein ligase WWP2 R460F, O00308” came in with an abundance fitness of -0.261 ± 0.065. For “NEDD4-like E3 ubiquitin-protein ligase WWP2 R460G, O00308”, the abundance fitness was -0.166 ± 0.041.

“NEDD4-like E3 ubiquitin-protein ligase WWP2 R460H, O00308” had an abundance fitness of -0.033 ± 0.081. To “NEDD4-like E3 ubiquitin-protein ligase WWP2 R460I, O00308” belongs -0.036 ± 0.074. Turning to “NEDD4-like E3 ubiquitin-protein ligase WWP2 R460K, O00308”, the abundance fitness is -0.088 ± 0.064.

In the case of “NEDD4-like E3 ubiquitin-protein ligase WWP2 R460L, O00308”, the abundance fitness is -0.088 ± 0.036.

As to “NEDD4-like E3 ubiquitin-protein ligase WWP2 R460N, O00308”, the abundance fitness was -0.343 ± 0.073.

Substance “NEDD4-like E3 ubiquitin-protein ligase WWP2 R460P, O00308” yielded an abundance fitness of -0.032 ± 0.06. Next, “NEDD4-like E3 ubiquitin-protein ligase WWP2 R460Q, O00308”: -0.104 ± 0.054; “NEDD4-like E3 ubiquitin-protein ligase WWP2 R460S, O00308”: -0.153 ± 0.06; “NEDD4-like E3 ubiquitin-protein ligase WWP2 R460T, O00308”: -0.032 ± 0.061. To “NEDD4-like E3 ubiquitin-protein ligase WWP2 R460V, O00308” belongs -0.137 ± 0.044; to “NEDD4-like E3 ubiquitin-protein ligase WWP2 R460W, O00308”, -0.413 ± 0.036. To “NEDD4-like E3 ubiquitin-protein ligase WWP2 R460Y, O00308” belongs -0.558 ± 0.12; to “NEDD4-like E3 ubiquitin-protein ligase WWP2 R468A, O00308”, -0.157 ± 0.035; to “NEDD4-like E3 ubiquitin-protein ligase WWP2 R468C, O00308”, -0.184 ± 0.06.

In turn, “NEDD4-like E3 ubiquitin-protein ligase WWP2 R468D, O00308” had an abundance fitness of -0.479 ± 0.06.

Turning to “NEDD4-like E3 ubiquitin-protein ligase WWP2 R468E, O00308”, the abundance fitness was -0.14 ± 0.039. Next, “NEDD4-like E3 ubiquitin-protein ligase WWP2 R468G, O00308”: -0.2 ± 0.033; “NEDD4-like E3 ubiquitin-protein ligase WWP2 R468H, O00308”: -0.015 ± 0.08. Next, “NEDD4-like E3 ubiquitin-protein ligase WWP2 R468I, O00308”: -0.51 ± 0.12. Next, “NEDD4-like E3 ubiquitin-protein ligase WWP2 R468K, O00308”: -0.071 ± 0.071; “NEDD4-like E3 ubiquitin-protein ligase WWP2 R468L, O00308”: -0.191 ± 0.047. In turn, “NEDD4-like E3 ubiquitin-protein ligase WWP2 R468M, O00308” registered an abundance fitness of -0.11 ± 0.033.

Substance “NEDD4-like E3 ubiquitin-protein ligase WWP2 R468N, O00308” yielded an abundance fitness of -0.208 ± 0.08.

The values above are taken from the Human Domainome abundance scans (Beltran et al. 2025).
